Results taken from patent US20180237497A1 (CANCER RESEARCH TECHNOLOGY, published 2018).
Positions count from the first letter of the chain named. In names and notes the source's numbering stands.

B1: domain 11^AB5 S1602Q (receptor)
chain: MKSNEHDDCQVTNPSTGHLFDLSSLSGRAGFTAAYAKGWGVYMSICGENENCPPGVGACFGQTRISVGKANKRLRYVDQVLQLVYKDGSPCPSKQGLSYKSVISFVCRPEAGPTNRPMLISLDKQTCTLFFSWHTPLACEQATECSV
notes: See m5
B2: domain 11^AB5 K1601R (receptor)
chain: B1 chain with K94R, Q95S
notes: See m5
B3: domain 11^AB3 P1597K (receptor)
chain: B1 chain with A36S, G38S, W39G, G40V, P90K, Q95S
notes: See m5
B4: domain 11^AB5 W1546F (receptor)
chain: B1 chain with W39F, Q95S
notes: See m5
B5: IGF2R domain 11^WT (receptor)
chain: B1 chain with A36S, K37E, G38K, W39G, G40L, Q95S
notes: Soluble His6-tagged domain 11 from P. pastoris and/or E. coli; also called wild-type domain 11
B6: IGF2R domain 11^AB3 (receptor)
chain: B1 chain with A36S, G38S, W39G, G40V, Q95S
notes: His6-tagged soluble domain 11; also called domain 11^E1544K, K1545S, L1547V; 1542YSKSGV1547
B7: domain 11^AB5 Q1569R P1597K S1602H (receptor)
chain: B1 chain with Q62R, P90K, Q95H
notes: See m5
B8: domain 11^AB5 Q1569R P1597K (receptor)
chain: B1 chain with Q62R, P90K, Q95S
notes: See m5
B9: domain 11^AB5 + 51F (HI-NRQS) (receptor)
chain: B1 chain with Q95S, D123N, K124R, T126S
notes: See m5; Protein quality poor
B10: domain 11^WT + 27G (HI-NMAL) (receptor)
chain: B1 chain with A36S, K37E, G38K, W39G, G40L, Q95S, D123N, K124M, Q125A, T126L
notes: See m5; Protein quality poor
B11: domain 11^WT + 23D (HI-HFQS) (receptor)
chain: B1 chain with A36S, K37E, G38K, W39G, G40L, Q95S, D123H, K124F, T126S
notes: See m5; Protein quality poor based on absorption spectra
B12: domain 11^WT + 312G (HI-VKLM) (receptor)
chain: B1 chain with A36S, K37E, G38K, W39G, G40L, Q95S, D123V, Q125L, T126M
notes: See m5; Protein quality poor
B13: domain 11^WT + 26C (HI-DMQT) (receptor)
chain: B1 chain with A36S, K37E, G38K, W39G, G40L, Q95S, K124M
notes: See m5; Protein quality poor
B14: Fc-domain 11^AB5-RHH (IGF2-TRAP) (Fc fusion, not shown: a dimerising Fc or GST)
chain: NEHDDCQVTNPSTGHLFDLSSLSGRAGFTAAYAKGWGVYMSICGENENCPPGVGACFGRTRISVGKANKRLRYVDQVLQLVYKDGSHCPSKHGLSYKSVISFVCRPEAGPTNRPMLISLDKQTCTLFFSWHTPLACEQAT
notes: RHH is not defined in words; read as Q1569R P1597H S1602H on AB5; IgG2 Fc is stated for the CHO product; also called IgG2 Fc-domain 11^AB5-RHH; Fc-domain 11^RHH
B15: Fc-domain 11^I1572A fusion protein (Fc fusion)
chain: B14 chain with A33S, K34E, G35K, W36G, G37L, R59Q, I62A, H87P, H92S
notes: not shown: human IgG Fc

molecular target: T1, human IGF2^1-67 (mature insulin-like growth factor 2) (human, UniProt P01344 25-91, biotinylated (site not stated) where immobilised on the chip (Tables 1-4)); test: SPR
T1 construct: mature; also called mature IGF2; biotinylated IGF2
From the text: (§1) Surface plasmon resonance (SPR) binding analysis of recombinant M6P/IGF2R domain 11 mutants interaction with IGF2. Kon indicates association (on) rate; koff, dissociation (off) rate; RU, response units. Binding to IGF2 assessed with BIAcore T200 using purified biotinylated IGF2 and IGF1 on a streptavidin biosensor chip. Recombinant proteins were expressed either in E. coli and/or P. pastoris. All the mutants in the FG and CD loops are on the domain 11^AB5 background for the AB loop unless otherwise stated. All experiments were carried out at 25° C. in HBS-EP buffer (pH 7.4), were repeated 2-5 times on two independent BIAcore chips. nd=not determined. Data for KD expressed as mean of each experiment, and means of kon and koff are shown.
(§2) Final kinetic analysis of mutants by SPR was conducted using a Biacore T200 biosensor at 25° C. in either HBS-EP (10 mM HEPES pH 7.4, 150 mM NaCl, 3 mM EDTA, and 0.005% (v/v) surfactant P20) or MES-EP (20 mM MES pH 6.5, 150 mM NaCl, 3 mM EDTA, and 0.005% (v/v) surfactant P20) at a flow-rate of 40 μL min⁻¹. […] For the analysis of the Fc-domain 11^AB5 interaction, approximately 50 RU of a biotinylated IGF2:biotinylated ubiquitin mixture (1:8 proportion) was immobilized on the CM5-streptavidin chip. This interaction was also analysed by immobilizing the Fc-domain 11^AB5 and Fc-domain 11^AB5-RHH (or Fc-domain 11^I1572A as control) by Human Antibody Capture (monoclonal mouse anti-human IgG antibody immobilised on a CM5 chip by amine coupling, GE Healthcare) with and without human IgG1 Fc fragment (Bethyl Laboratories, UK) in the control flow cell. […] T200 BiaEvaluation software (GE Healthcare) was used to fit the resulting curves according to a 1:1 binding model.

T1 sequence (P01344 25-91): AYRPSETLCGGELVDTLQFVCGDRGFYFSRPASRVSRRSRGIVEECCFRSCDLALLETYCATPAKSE

| fold improvement of affinity | fold change of KD against domain 11^AB3 | fold reduction of koff against domain 11^AB3 | fold reduction of koff | Binder |
| --- | --- | --- | --- | --- |
| ≤ 2 fold |  |  |  | B1 |
| ≤ 2 fold |  |  |  | B2 |
|  | 6 fold | 2 fold |  | B3 |
|  |  |  | 2 fold | B4 |

molecular target: T1, human IGF2^1-67 (mature insulin-like …); test: SPR kinetic, biotin-IGF2 on chip, pH 7.4
From the text: as §1
as §2, with “model. Steady state affinities were determined using the kinetic data, taking the response average at 5 seconds before injection end and for 5 seconds average.” for “model.”

| Kd | koff | kon | Binder |
| --- | --- | --- | --- |
| 46 nM | 0.23 s⁻¹ | 5e+06 M⁻¹ s⁻¹ | B5 |
| 3.61 nM | 0.0191 s⁻¹ | 5.88e+06 M⁻¹ s⁻¹ | B1 |
| 4.75 nM | 0.0251 s⁻¹ | 5.28e+06 M⁻¹ s⁻¹ | B2 |
| 15.3 nM | 0.044 s⁻¹ | 2.76e+06 M⁻¹ s⁻¹ | B6 |
| 4.35 nM | 0.018 s⁻¹ | 4.5e+06 M⁻¹ s⁻¹ | B4 |

molecular target: T1, human IGF2^1-67 (mature insulin-like …); test: SPR kinetic, biotin-IGF2 on chip, pH 6.5
Experimental: Measurements were carried out at 25° C. in MES-EP buffer, 20 mM MES pH 6.5, 150 mM NaCl, 3 mM EDTA, and 0.005% (v/v) surfactant P20). Data for KD expressed as mean of each experiment, and means of kon and koff are shown.
as §2, with “model. Steady state affinities were determined using the kinetic data, taking the response average at 5 seconds before injection end and for 5 seconds average. Thermodynamic data was performed across the temperature range of 10° C. to 30° C., van't Hoff and Erying plots generated and ΔH, −TΔS and ΔG values determined as previously described.” for “model.”

| Kd | koff | kon | Binder |
| --- | --- | --- | --- |
| 35.1 nM | 0.144 s⁻¹ | 2.68e+06 M⁻¹ s⁻¹ | B5 |
| 11.8 nM | 0.0381 s⁻¹ | 3.43e+06 M⁻¹ s⁻¹ | B6 |

molecular target: T1, human IGF2^1-67 (mature insulin-like …); test: SPR steady state, biotin-IGF2 on chip, pH 7.4
Experimental: as §2, with “model. Steady state affinities were determined using the kinetic data, taking the response average at 5 seconds before injection end and for 5 seconds average. Thermodynamic data was performed across the temperature range of 10° C. to 30° C., van't Hoff and Erying plots generated and ΔH, −TΔS and ΔG values determined as previously described.” for “model.”

| Kd | Binder |
| --- | --- |
| 2.11 nM | B7 |
| 3.59 nM | B3 |
| 15.5 nM | B6 |
| 1.69 nM | B8 |

molecular target: T1, human IGF2^1-67 (mature insulin-like …); test: SPR steady state, biotin-IGF2 on chip, pH 7.4; remark: another data set of the same source
From the text: as §1
as §2, with “model. Steady state affinities were determined using the kinetic data, taking the response average at 5 seconds before injection end and for 5 seconds average.” for “model.”

| Kd | Binder |
| --- | --- |
| 64 nM | B5 |
| 5.11 nM | B1 |
| 5.78 nM | B2 |
| 15.5 nM | B6 |
| 5 nM | B4 |

molecular target: T1, human IGF2^1-67 (mature insulin-like …); test: SPR kinetic, biotin-IGF2 on chip
Experimental: as §2, with “model. Steady state affinities were determined using the kinetic data, taking the response average at 5 seconds before injection end and for 5 seconds average. Thermodynamic data was performed across the temperature range of 10° C. to 30° C., van't Hoff and Erying plots generated and ΔH, −TΔS and ΔG values determined as previously described.” for “model.”

| Kd | koff | kon | Binder |
| --- | --- | --- | --- |
| 46 nM | 0.23 s⁻¹ | 5e+06 M⁻¹ s⁻¹ | B5 |
| 13.5 nM | 0.1 s⁻¹ | 7.4e+06 M⁻¹ s⁻¹ | B9 |
| 195 nM | 0.25 s⁻¹ | 2e+06 M⁻¹ s⁻¹ | B10 |
| 176 nM | 0.065 s⁻¹ | 250000 M⁻¹ s⁻¹ | B11 |
| 15.3 nM | 0.044 s⁻¹ | 2.76e+06 M⁻¹ s⁻¹ | B6 |
| 119 nM | 0.15 s⁻¹ | 1.07e+06 M⁻¹ s⁻¹ | B12 |
| 130 nM | 0.24 s⁻¹ | 1.89e+06 M⁻¹ s⁻¹ | B13 |

molecular target: T1, human IGF2^1-67 (mature insulin-like …); test: SPR kinetic, Fc fusion captured by anti-human IgG, pH 7.4
Experimental: (§3) SPR analysis of the interaction of recombinant IGF1 and IGF2 forms with Fc-domain 11 proteins immobilised by antibody capture (CM5 chip containing monoclonal mouse anti-human IgG antibody immobilised by amine coupling). Measurements were carried out at 25° C. in HBS-EP buffer (pH 7.4).
as §2, with “model. Steady state affinities were determined using the kinetic data, taking the response average at 5 seconds before injection end and for 5 seconds average. Thermodynamic data was performed across the temperature range of 10° C. to 30° C., van't Hoff and Erying plots generated and ΔH, −TΔS and ΔG values determined as previously described.” for “model.”

| Kd | koff | kon | Binder |
| --- | --- | --- | --- |
| 0.54 nM | 0.0014 s⁻¹ | 2.6e+06 M⁻¹ s⁻¹ | B14 |

molecular target: pro-IGF2^1-104 (UniProt P01344 25-128); test: as above
Experimental: as §3
as §2, with “model. Steady state affinities were determined using the kinetic data, taking the response average at 5 seconds before injection end and for 5 seconds average. Thermodynamic data was performed across the temperature range of 10° C. to 30° C., van't Hoff and Erying plots generated and ΔH, −TΔS and ΔG values determined as previously described.” for “model.”

Sequence of pro-IGF2^1-104 (P01344 25-128 limits assumed): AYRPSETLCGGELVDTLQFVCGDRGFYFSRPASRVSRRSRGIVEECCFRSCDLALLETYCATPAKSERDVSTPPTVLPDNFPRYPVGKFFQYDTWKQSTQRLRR

| Kd | koff | kon | Binder |
| --- | --- | --- | --- |
| 0.39 nM | 0.0005 s⁻¹ | 1.29e+06 M⁻¹ s⁻¹ | B14 |
| 4.41 nM | 0.002 s⁻¹ | 520000 M⁻¹ s⁻¹ | B15 |

molecular target: T2, pro-IGF2^1-156 (UniProt P01344 25-180); test: as above
T2 construct: range 1-156
Experimental: as §3
as §2, with “model. Steady state affinities were determined using the kinetic data, taking the response average at 5 seconds before injection end and for 5 seconds average. Thermodynamic data was performed across the temperature range of 10° C. to 30° C., van't Hoff and Erying plots generated and ΔH, −TΔS and ΔG values determined as previously described.” for “model.”

T2 sequence (P01344 25-180 limits assumed): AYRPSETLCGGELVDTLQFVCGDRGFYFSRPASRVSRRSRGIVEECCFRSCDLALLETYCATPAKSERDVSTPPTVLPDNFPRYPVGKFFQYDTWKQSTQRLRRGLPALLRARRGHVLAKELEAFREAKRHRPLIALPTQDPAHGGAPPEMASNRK

| Kd | koff | kon | Binder |
| --- | --- | --- | --- |
| 1.13 nM | 0.0003 s⁻¹ | 230000 M⁻¹ s⁻¹ | B14 |
| 2.71 nM | 0.0008 s⁻¹ | 290000 M⁻¹ s⁻¹ | B15 |

molecular target: T1, human IGF2^1-67 (mature insulin-like …); test: SPR kinetic, biotin-IGF2 on chip, pH 7.4; remark: another data set of the same source
Experimental: as §2, with “model. Steady state affinities were determined using the kinetic data, taking the response average at 5 seconds before injection end and for 5 seconds average. Thermodynamic data was performed across the temperature range of 10° C. to 30° C., van't Hoff and Erying plots generated and ΔH, −TΔS and ΔG values determined as previously described.” for “model.”

| Kd | koff | kon | Binder |
| --- | --- | --- | --- |
| 0.92 nM | 0.0073 s⁻¹ | 7.87e+06 M⁻¹ s⁻¹ | B7 |
| 2.78 nM | 0.0287 s⁻¹ | 1.05e+07 M⁻¹ s⁻¹ | B3 |
| 15.3 nM | 0.044 s⁻¹ | 2.76e+06 M⁻¹ s⁻¹ | B6 |
| 0.95 nM | 0.0091 s⁻¹ | 9.59e+06 M⁻¹ s⁻¹ | B8 |

molecular target: T1, human IGF2^1-67 (mature insulin-like …); test: SPR steady state, biotin-IGF2 on chip
Experimental: as §2, with “model. Steady state affinities were determined using the kinetic data, taking the response average at 5 seconds before injection end and for 5 seconds average. Thermodynamic data was performed across the temperature range of 10° C. to 30° C., van't Hoff and Erying plots generated and ΔH, −TΔS and ΔG values determined as previously described.” for “model.”

| Kd | Binder |
| --- | --- |
| 64 nM | B5 |
| 6.94 nM | B9 |
| 194 nM | B10 |
| 220 nM | B11 |
| 15.5 nM | B6 |
| 135 nM | B12 |
| 127 nM | B13 |
